This data set has as its system Escherichia coli TOP10. Briefly: shrunken log2 fold change of peptide-encoding DNA abundance (4.5 h post-induction vs induction); higher = less antimicrobial activity (less host growth inhibition). The conditions noted are these: time post-induction: 4.5 h; library: site-saturation at positions 5, 18, 19, 20.
Consider RRIRFRPPRLPRPRPRPIDVPRP, for which the “shrunken log2 fold change” value was -0.146.

Take RRIRRRPPRLPRPRPRPTRSPRP: the “shrunken log2 fold change” value was determined as 0.341.

For RRIRQRPPRLPRPRPRPACHPRP, the “shrunken log2 fold change” value is 0.105. For the sequence RRIRMRPPRLPRPRPRPVWYPRP, the “shrunken log2 fold change” value was -0.0263. In the case of RRIRTRPPRLPRPRPRPPWKPRP, the “shrunken log2 fold change” value was -0.107. As to RRIRYRPPRLPRPRPRPFSWPRP, the “shrunken log2 fold change” value was -0.235. Consider RRIRHRPPRLPRPRPRPERAPRP, for which the “shrunken log2 fold change” value was found to be 0.305. On to RRIRCRPPRLPRPRPRPSDWPRP, for which the “shrunken log2 fold change” value is -0.0723. Regarding RRIRQRPPRLPRPRPRPNTTPRP, the “shrunken log2 fold change” value stood at 0.15.

Turning to RRIRNRPPRLPRPRPRPVRAPRP, the “shrunken log2 fold change” value is 0.545. Regarding RRIRLRPPRLPRPRPRPTEKPRP, the “shrunken log2 fold change” value was -0.0343. Consider RRIRQRPPRLPRPRPRPGKTPRP, for which the “shrunken log2 fold change” value was -0.00992. For the sequence RRIRFRPPRLPRPRPRPINNPRP, the “shrunken log2 fold change” value was -0.683.

As to RRIRERPPRLPRPRPRPNMFPRP, the “shrunken log2 fold change” value is -0.615. The value for RRIRERPPRLPRPRPRPQWDPRP was 0.0698; that for RRIRPRPPRLPRPRPRPECCPRP was 0.526. As to RRIRTRPPRLPRPRPRPGSNPRP, the “shrunken log2 fold change” value is -0.415. RRIRWRPPRLPRPRPRPQWDPRP: the “shrunken log2 fold change” value is -0.0065.

With RRIRTRPPRLPRPRPRPSSFPRP, the “shrunken log2 fold change” value is -0.284. RRIRTRPPRLPRPRPRPKNCPRP: the “shrunken log2 fold change” value was -0.0901. On to RRIRLRPPRLPRPRPRPFPAPRP, for which the “shrunken log2 fold change” value was -0.094. On to RRIRSRPPRLPRPRPRPPSSPRP, for which the “shrunken log2 fold change” value is -0.0711. Consider RRIRYRPPRLPRPRPRPCKWPRP, for which the “shrunken log2 fold change” value is -0.063.

As for RRIRYRPPRLPRPRPRPEHKPRP, the “shrunken log2 fold change” value is -0.605. For the sequence RRIRMRPPRLPRPRPRPLAGPRP, the “shrunken log2 fold change” value was 0.468. Under RRIRLRPPRLPRPRPRPTVSPRP stands 0.0646; under RRIRQRPPRLPRPRPRPLTQPRP, 0.0547. Under RRIRKRPPRLPRPRPRPEWMPRP stands -0.0537. In the case of RRIRSRPPRLPRPRPRPCSLPRP, the “shrunken log2 fold change” value was -0.484.

For RRIRRRPPRLPRPRPRPDTFPRP, the “shrunken log2 fold change” value came out at 0.025. In the case of RRIRCRPPRLPRPRPRPNCEPRP, the “shrunken log2 fold change” value worked out at 0.223.

As to RRIRIRPPRLPRPRPRPVHDPRP, the “shrunken log2 fold change” value was -0.0869. The value for RRIRVRPPRLPRPRPRPDWHPRP was -0.0256; that for RRIRARPPRLPRPRPRPDMQPRP was 0.984. Under RRIRWRPPRLPRPRPRPSPEPRP stands 0.383; under RRIRMRPPRLPRPRPRPSPWPRP, 0.61.

For RRIRHRPPRLPRPRPRPSTTPRP, the “shrunken log2 fold change” value was -0.416. In the case of RRIRVRPPRLPRPRPRPFLSPRP, the “shrunken log2 fold change” value was -0.567. Under RRIRHRPPRLPRPRPRPNWGPRP stands 0.0702. In the case of RRIRPRPPRLPRPRPRPIVYPRP, the “shrunken log2 fold change” value is 0.175.

Regarding RRIRIRPPRLPRPRPRPGFQPRP, the “shrunken log2 fold change” value is -0.106.

Take RRIRTRPPRLPRPRPRPGPCPRP: the “shrunken log2 fold change” value turned out to be 0.219. Take RRIRKRPPRLPRPRPRPPNAPRP: the “shrunken log2 fold change” value was found to be 0.711. For the sequence RRIRWRPPRLPRPRPRPMFCPRP, the “shrunken log2 fold change” value was -0.0733. The value for RRIRRRPPRLPRPRPRPYMMPRP was -0.699. Take RRIRERPPRLPRPRPRPSHTPRP: the “shrunken log2 fold change” value is -0.248. As for RRIRRRPPRLPRPRPRPRDGPRP, the “shrunken log2 fold change” value stood at 0.731. As for RRIRPRPPRLPRPRPRPHGRPRP, the “shrunken log2 fold change” value is -0.0223. Take RRIRKRPPRLPRPRPRPCWEPRP: the “shrunken log2 fold change” value came to 0.0666.

Consider RRIRRRPPRLPRPRPRPTQKPRP, for which the “shrunken log2 fold change” value worked out at 0.788. As to RRIRWRPPRLPRPRPRPMMKPRP, the “shrunken log2 fold change” value worked out at 0.155. For the sequence RRIRIRPPRLPRPRPRPIGVPRP, the “shrunken log2 fold change” value was -0.0176.

On to RRIRDRPPRLPRPRPRPCCKPRP, for which the “shrunken log2 fold change” value was 0.0846.

For the sequence RRIRPRPPRLPRPRPRPSIGPRP, the “shrunken log2 fold change” value worked out at 0.166. Regarding RRIRNRPPRLPRPRPRPEANPRP, the “shrunken log2 fold change” value was -0.0185. As to RRIRNRPPRLPRPRPRPQKMPRP, the “shrunken log2 fold change” value was -0.134. RRIRDRPPRLPRPRPRPPELPRP: the “shrunken log2 fold change” value was 0.107. With RRIRSRPPRLPRPRPRPHNCPRP, the “shrunken log2 fold change” value was -0.159. Turning to RRIRYRPPRLPRPRPRPKDWPRP, the “shrunken log2 fold change” value was -0.176. Consider RRIRVRPPRLPRPRPRPEPGPRP, for which the “shrunken log2 fold change” value was found to be 0.547. In the case of RRIRGRPPRLPRPRPRPYGTPRP, the “shrunken log2 fold change” value was -0.0646. On to RRIRNRPPRLPRPRPRPNHTPRP, for which the “shrunken log2 fold change” value was -0.773.

With RRIRFRPPRLPRPRPRPAYHPRP, the “shrunken log2 fold change” value was -0.00712. Under RRIRSRPPRLPRPRPRPYSCPRP stands -0.386; under RRIRQRPPRLPRPRPRPVLNPRP, 2.89.

In the case of RRIRQRPPRLPRPRPRPGNWPRP, the “shrunken log2 fold change” value was -0.0235.

As to RRIRPRPPRLPRPRPRPRAGPRP, the “shrunken log2 fold change” value was 0.626. For the sequence RRIRARPPRLPRPRPRPLQAPRP, the “shrunken log2 fold change” value is 0.674. Consider RRIRWRPPRLPRPRPRPMPVPRP, for which the “shrunken log2 fold change” value was 0.346.

On to RRIRLRPPRLPRPRPRPEHSPRP, for which the “shrunken log2 fold change” value is -0.0185.

In the case of RRIRNRPPRLPRPRPRPKELPRP, the “shrunken log2 fold change” value came out at 0.0238. Regarding RRIRWRPPRLPRPRPRPMQQPRP, the “shrunken log2 fold change” value came to 0.056.

In the case of RRIRRRPPRLPRPRPRPYYGPRP, the “shrunken log2 fold change” value is -0.132.

Take RRIRSRPPRLPRPRPRPDLDPRP: the “shrunken log2 fold change” value came out at 0.152.

Take RRIRIRPPRLPRPRPRPENPPRP: the “shrunken log2 fold change” value was -0.695. For the sequence RRIRLRPPRLPRPRPRPLCIPRP, the “shrunken log2 fold change” value was -0.569. RRIRKRPPRLPRPRPRPGFLPRP: the “shrunken log2 fold change” value was found to be 0.203. For the sequence RRIRPRPPRLPRPRPRPCETPRP, the “shrunken log2 fold change” value amounted to 0.0508. Consider RRIRYRPPRLPRPRPRPTWTPRP, for which the “shrunken log2 fold change” value was 0.0315. As for RRIRCRPPRLPRPRPRPLMTPRP, the “shrunken log2 fold change” value is -0.0133. Turning to RRIRYRPPRLPRPRPRPATGPRP, the “shrunken log2 fold change” value is 0.337. Take RRIRKRPPRLPRPRPRPNMSPRP: the “shrunken log2 fold change” value is -0.0139. As for RRIRQRPPRLPRPRPRPGGQPRP, the “shrunken log2 fold change” value was -0.137. The value for RRIRQRPPRLPRPRPRPNCLPRP was -0.0533. For RRIRHRPPRLPRPRPRPNLNPRP, the “shrunken log2 fold change” value was -0.786. For the sequence RRIRARPPRLPRPRPRPQMRPRP, the “shrunken log2 fold change” value is 0.62. As for RRIRNRPPRLPRPRPRPWAPPRP, the “shrunken log2 fold change” value is -0.23. With RRIRIRPPRLPRPRPRPGFKPRP, the “shrunken log2 fold change” value was -0.219. Regarding RRIRNRPPRLPRPRPRPQAIPRP, the “shrunken log2 fold change” value worked out at 0.00297. The value for RRIRYRPPRLPRPRPRPISLPRP was -0.333. Turning to RRIRQRPPRLPRPRPRPHQFPRP, the “shrunken log2 fold change” value amounted to 0.0486. On to RRIRDRPPRLPRPRPRPGECPRP, for which the “shrunken log2 fold change” value was -0.0602.

Turning to RRIRFRPPRLPRPRPRPTFNPRP, the “shrunken log2 fold change” value is -0.279.

Regarding RRIRPRPPRLPRPRPRPNHAPRP, the “shrunken log2 fold change” value was -0.162. Under RRIRLRPPRLPRPRPRPNHLPRP stands 0.0169; under RRIRIRPPRLPRPRPRPKYGPRP, -0.284. For RRIRVRPPRLPRPRPRPLMYPRP, the “shrunken log2 fold change” value is -0.564.

For RRIRKRPPRLPRPRPRPMRWPRP, the “shrunken log2 fold change” value worked out at 1.41. For the sequence RRIRNRPPRLPRPRPRPYFEPRP, the “shrunken log2 fold change” value was -0.797. As for RRIRERPPRLPRPRPRPESTPRP, the “shrunken log2 fold change” value amounted to 0.176. As for RRIRFRPPRLPRPRPRPDICPRP, the “shrunken log2 fold change” value is -0.0857.

On to RRIRERPPRLPRPRPRPITIPRP, for which the “shrunken log2 fold change” value was -0.0388.

Take RRIRTRPPRLPRPRPRPMTKPRP: the “shrunken log2 fold change” value is -0.0084.

With RRIRARPPRLPRPRPRPTMSPRP, the “shrunken log2 fold change” value worked out at 0.159.

On to RRIRARPPRLPRPRPRPYLMPRP, for which the “shrunken log2 fold change” value was -0.648. Regarding RRIRPRPPRLPRPRPRPGWGPRP, the “shrunken log2 fold change” value was determined as 0.458. Under RRIRDRPPRLPRPRPRPDCHPRP stands 0.469; under RRIRTRPPRLPRPRPRPFTKPRP, -0.0107; under RRIRRRPPRLPRPRPRPWFPPRP, -0.44. For the sequence RRIRNRPPRLPRPRPRPKNCPRP, the “shrunken log2 fold change” value was -0.552. Consider RRIRTRPPRLPRPRPRPKIMPRP, for which the “shrunken log2 fold change” value is -0.519.

As for RRIRRRPPRLPRPRPRPDNCPRP, the “shrunken log2 fold change” value is -0.113.

RRIRERPPRLPRPRPRPLPDPRP: the “shrunken log2 fold change” value is -0.0462. Take RRIRMRPPRLPRPRPRPIHGPRP: the “shrunken log2 fold change” value was determined as 0.0579.

For RRIRVRPPRLPRPRPRPNNCPRP, the “shrunken log2 fold change” value is -0.0726. For the sequence RRIRSRPPRLPRPRPRPEACPRP, the “shrunken log2 fold change” value was 1.03. Turning to RRIRDRPPRLPRPRPRPESEPRP, the “shrunken log2 fold change” value worked out at 0.444. Turning to RRIRKRPPRLPRPRPRPGPLPRP, the “shrunken log2 fold change” value was determined as 0.578. Consider RRIRYRPPRLPRPRPRPSFVPRP, for which the “shrunken log2 fold change” value is -0.714. With RRIRCRPPRLPRPRPRPMEFPRP, the “shrunken log2 fold change” value was -0.0158. Under RRIRFRPPRLPRPRPRPVGSPRP stands -0.0263; under RRIRFRPPRLPRPRPRPEQEPRP, -0.159. With RRIRNRPPRLPRPRPRPNIEPRP, the “shrunken log2 fold change” value is -0.027.

As to RRIRQRPPRLPRPRPRPMRHPRP, the “shrunken log2 fold change” value amounted to 2.84. For RRIRIRPPRLPRPRPRPNKVPRP, the “shrunken log2 fold change” value is -0.393.

Source of the values: the supplement of paper PMC9112550, “Optimization of the antimicrobial peptide Bac7 by deep mutational scanning” (BMC Biology, 2022).
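Also: peptides expressed intracellularly from a pBAD plasmid library in pooled LB shake-flask culture, induced with 0.3% L-arabinose, DNA abundance read by NGS, three biological replicates, DESeq2 with apeglm shrinkage.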
